Data published in publication doi:10.1101/2020.12.01.405779.

Key:
[1] = target: FUL2 (wheat); assay: two-hybrid
[2] = target: FUL3 (wheat); assay: two-hybrid

percent reduction of the α-gal activity of the FUL2 - SEP1-2 interaction [1]: 12%
percent reduction of the α-gal activity of the FUL2 - SEP1-4 interaction [1]: 20.6%
percent reduction of the α-gal activity of the FUL2 - SEP1-6 interaction [1]: 22%
percent reduction of the α-gal activity of the FUL3 - SEP1-2 interaction [2]: 93.8%
Substance: VRT2 (Bridge protein of the yeast three-hybrid assay) (natural protein)
